# Assay results as given in US20260053963A1.
# Biological target: CD33 (human) (UniProt P20138)
# Experiment: cell-based or functional assay
# Chain of UniProt P20138 (P20138 18-364): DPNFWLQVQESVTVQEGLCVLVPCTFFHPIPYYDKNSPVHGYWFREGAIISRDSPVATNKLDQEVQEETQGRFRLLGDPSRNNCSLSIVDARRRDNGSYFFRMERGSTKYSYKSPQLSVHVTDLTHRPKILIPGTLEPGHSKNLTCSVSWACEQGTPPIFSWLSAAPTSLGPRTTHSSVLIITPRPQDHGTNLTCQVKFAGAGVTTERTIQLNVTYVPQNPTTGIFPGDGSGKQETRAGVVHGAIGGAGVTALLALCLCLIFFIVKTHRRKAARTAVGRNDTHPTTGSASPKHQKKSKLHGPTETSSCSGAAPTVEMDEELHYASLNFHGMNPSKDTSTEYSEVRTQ
substance,measurement,value
^225Ac-labeled lintuzumab (^225Ac-labeled conjugate of p-SCN-Bn-DOTA and lintuzumab) (antibody; the values are: LD50),cytotoxicity on HL60 (leukemia cells): dose at which 50% of the cells were killed (LD50),8 pCi/mL
